Tested on: T cell hybridoma A1.1 cells
Assay: T cell hybridoma A1.1 proliferation in co-culture with MSCs
Assay type: cell-based, mouse
Description: FIG. 7. […] MSC cells and T-cell hybridoma A1.1 cell line were co-cultured at a ratio of 1:20. The co-cultures were supplemented with IFNγ+ TNF α, or IL-17A+IFNγ+TNFα. Cell proliferation was measured by the cell density indicated by O.D. 570 nm.
FIGS. 9A, 9B, 9C, 9D, 9E, 9F and 9G. (FIG. 9A). Cloned MSCs were first treated with the indicated combinations of recombinant cytokines IFNγ, TNFα, IL-17A (2 ng/ml each) for 12 hr, then cocultured with CD4^+ T cell blasts at a 1:20 ratio (MSC:T cells), and proliferation was assessed by 3H-thymidine incorporation after an additional 12 hr. (FIG. 9B). The mRNA expression of IL-17 receptor family members in MSCs or Raw 264.7 (Macrophages) were examined by RT-PCR. NC: No RT. (FIG. 9C). Surface expression of IL-17RA was detected by immunofluoresence or flow cytometry in cloned MSCs. (FIGS. 9D and 9E). MSCs were first treated with IFNγ and TNFα with or without IL-17A (10 ng/ml), IFNγ and TNFα were supplemented at different cytokine concentrations, for 12 hr, and then cocultured with CD4^+ T cell blasts (FIG. 9D) or T cell hybridoma A1.1 cells (FIG. 9E) at a ratio of 1:20 for 12 hr. T cell proliferation was measured by 3H-Tdr incorporation. (FIG. 9F). MSCs were first treated with IFNγ and TNFα (2 ng/ml) with graded concentrations of IL-17A, for 12 hr, and then cocultured with T cell hybridoma A1.1 cells at a ratio of 1:10 for 12 hr. T cell proliferation was measured by 3H-thymidine incorporation. (FIG. 9G). MSCs were cocultured with fresh C57BL/6 splenocytes plus anti-CD3, anti-CD28, and antibodies against IL-17A, at a 1:20 or 1:40 ratio (MSCs:splenocytes), for 48 hr, and then cell proliferation was assessed by 3H-thymidine incorporation. Proliferation values represent means±SEM of three wells from a representative of three experiments.
FIGS. 11A, 11B, 11C and 11D. (FIG. 11A) MSCs with Act1 knockdown or control were treated with IL-17A for different time and the phosphorylation levels of IκBα, ERK, p65, JNK were assessed by Western Blot. (FIG. 11B) MSCs with Act1 knockdown or control were treated with IFNγ and TNFα with or without IL-17A (all cytokines supplemented at 5 ng/ml) the protein levels of iNOS and Act1 were assessed by Western Blot. (FIG. 11C) MSCs (Act1 knockdown or control) were treated with different cytokines 12 hr, and iNOS expression was measured by quantitative RT-PCR. mRNA expression values are means±SEM. (FIG. 11D) MSCs (Act1 knockdown or control) were first treated with IFNγ and TNFα with or without IL-17A (all cytokines supplemented at 5 ng/ml) for 12 hr, and then cocultured with T cell hybridoma A1.1 cells at a ratio of 1:10 for 12 hr. T cell proliferation was measured by 3H-Tdr incorporation, taking the proliferation level of A1.1 alone as 100%.
FIGS. 14A and 14B. (FIG. 14A). WT MSCs or auf1^−/− MSCs were first treated with IFNγ and TNFα with or without IL-17A (all cytokines supplemented at 5 ng/ml) for 12 hr, and then cocultured with T cell hybridoma A1.1 cells at a ratio of 1:10 for 12 hr. T cell proliferation was measured by 3H-Tdr incorporation, taking the proliferation level of A1.1 alone as 100%. (FIG. 14B). WT MSCs or auf1^−/− MSCs were first treated with IFNγ and TNFα with or without IL-17A (10 ng/ml), IFNγ and TNFα were supplemented at different cytokine concentrations, for 12 hr, and then cocultured with T cell hybridoma A1.1 cells at a ratio of 1:10 for 12 hr. T cell proliferation was measured by 3H-Tdr incorporation, taking the proliferation level of A1.1 alone as 100%. […]

B1: IL-17A: recombinant mouse interleukin 17A (protein)
chain: AAIIPQSSACPNTEAKDFLQNVKVNLKVFNSLGAKVSSRRPSDYLNRSTSPWTLHRNEDPDRYPSVIWEAQCRHQRCVNAEGKLDHHMNSVLIQQEILVLKREPESCPFTFRVEKMLVGVGCTCVASIVRQAA
5 ng/ml, A1.1 1:10
  enhancement of immunosuppression in absence of Act1: not seen
IFNγ and TNFα 2 ng/ml each, 12 hr, A1.1 1:10
  IL-17A concentration sufficient to elicit a dramatic decrease in T cell proliferation: 0.5 ng/mL
MSC:A1.1 1:20, O.D. 570 nm
  T-cell proliferation in MSC-T cell co-culture: enhanced the suppression
With IFNγ+TNFα, A1.1 1:10
  immunosuppressive activity of wild-type MSCs: increased the immunosuppressive activity
  immunosuppressive effect of auf1−/− MSCs: did not further enhance

— US12156889B2, “Methods of administering mesenchymal stem cells activated by cytokines for enhancing immunosuppression” (Rutgers, The State University of New Jersey, priority 2012, dated 2024)
